Experimental data reported in publication PMC3929958 (Molecular cell, 2013).
Numbering of substitutions follows the chain as printed. In names and notes the source's numbering stands. Read-outs that look alike come from different tables or passages of the source.

Legend:
[1] = target: the molecule itself; assay: SEC
[2] = target: the molecule itself; assay: fluorescence polarisation
[3] = target: the molecule itself; assay: fluorescence polarisation; remark: listed apart in the source
[4] = target: the molecule itself; assay: fluorescence polarisation; remark: listed apart in the source
[5] = target: the molecule itself; assay: SEC-MALS

B1: CARMA1 (8–302) (domain or fragment, human, UniProt Q9BXL7 8-302, looked up)
chain: MDDYMETLKDEEDALWENVECNRHMLSRYINPAKLTPYLRQCKVIDEQDEDEVLNAPMLPSKINRAGRLLDILHTKGQRGYVVFLESLEFYYPELYKLVTGKEPTRRFSTIVVEEGHEGLTHFLMNEVIKLQQQMKAKDLQRCELLARLRQLEDEKKQMTLTRVELLTFQERYYKMKEERDSYNDELVKVKDDNYNLAMRYAQLSEEKNMAVMRSRDLQLEIDQLKHRLNKMEEECKLERNQSLKLKNDIENRPKKEQVLELERENEMLKTKNQELQSIIQAGKRSLPDSDKAIL
- stoichiometry N [1]: > 100

B2: Bcl10 R36E/E50R/D51R triple mutant (natural protein)
chain: MEPTAPSLTEEDLTEVKKDALENLRVYLAEKIIAEEHFDHLRAKKILSRRRTEEISARTSSRKRAGKLLDYLQENPKGLDTLVESIRREKTQNFLIQKITDEVLKLRNIKLEHLKGLKCSSCEPFPDGATNNLSRSNSDESNFSEKLRASTVMYHPEGESSTTPFFSTNSSLNLPVLEVGRTENTIFSSTTLPRPGDPGAPPLPPDLQLEEEGTCANSSEMFLPLRSRTVSRQ
- polymerization activity relative to WT Bcl10 [2]: ~50%

B3: Alexa 488-labeled Bcl10 (C29A/C57A double mutant), MBP removed by TEV (natural protein, human, UniProt O95999 1-233, looked up)
chain: B2 chain with E36R, R50E, R51D
modifications: Alexa 488 label (site not stated)
- Kd [3]: 4300 nM
- Kd [4]: 800 nM

B4: CARMA1 (8–172) (domain or fragment, human, UniProt Q9BXL7 8-172, looked up)
chain: MDDYMETLKDEEDALWENVECNRHMLSRYINPAKLTPYLRQCKVIDEQDEDEVLNAPMLPSKINRAGRLLDILHTKGQRGYVVFLESLEFYYPELYKLVTGKEPTRRFSTIVVEEGHEGLTHFLMNEVIKLQQQMKAKDLQRCELLARLRQLEDEKKQMTLTRVE
- stoichiometry N [5]: 3
